Reference: patent US6570069B1, “Nucleic acids encoding plant inhibitors of apoptosis and transgenic cells and plants expressing them” (priority 2000, dated 2003)

Experiments:
[1] = target: T1, pro-caspase-9 (Homo sapiens, UniProt P55211); assay: GST pull-down binding of [35S]-pro-caspase-9; set-up: species or system mammalian; conditions: GST fusion protein on glutathione-Sepharose
T1 construct: host or cells: cell-free in vitro transcription/translation
T1 sequence (P55211 1-416): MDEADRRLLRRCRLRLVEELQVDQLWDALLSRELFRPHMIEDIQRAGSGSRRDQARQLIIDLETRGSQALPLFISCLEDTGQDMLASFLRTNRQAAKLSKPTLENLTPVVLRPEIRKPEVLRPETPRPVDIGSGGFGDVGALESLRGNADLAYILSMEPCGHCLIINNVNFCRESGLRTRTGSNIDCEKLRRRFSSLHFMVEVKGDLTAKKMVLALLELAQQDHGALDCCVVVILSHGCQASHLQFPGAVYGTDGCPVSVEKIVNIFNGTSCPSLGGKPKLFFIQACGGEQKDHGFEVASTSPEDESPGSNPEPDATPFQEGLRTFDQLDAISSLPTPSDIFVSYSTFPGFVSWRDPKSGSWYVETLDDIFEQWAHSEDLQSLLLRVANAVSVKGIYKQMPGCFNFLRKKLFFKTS
Method: [^35S]Pro-caspase-9 was in vitro transcribed and translated in the presence of [^35S]L-methionine using TNT kit from Promega. Protein were desalted and exchanged into buffer (20 mM HEPES pH 7.5, 10 mM KCl, 1.5 mM MgCl2, 1 mM EDTA and 1 mM DTT) with Bio-spin P-6 columns (Bio-Rad). […] After incubation at 4 ° C. for 1 hour, beads were removed by centrifugation and washed twice with 0.5 ml of 50 mM Tris (pH 7.5), 150 mM NaCl, 2 mm DTT before analysis by SDS-PAGE and autoradiography.

[2] = tested on: Bax-induced apoptosis in HEK293 cells; assay: Bax-induced apoptosis in HEK293 cells (co-transfection, DAPI nuclear morphology); assay type: cell-based, human; conditions: IAP plasmid co-transfected with Bax into 293 cells; % apoptosis 24-36 hours later
Method: (§1) HEK293 and 293T cells were maintained in DMEM (Irvine Scientific) supplemented with 10% fetal bovine serum, 1 mM L-glutamine and antibiotics. 293 cells (10^6) were co-transfected using Superfect with 0.1 μg Green Fluoresence Protein (GFP) marker plasmid pEGFP (Clontech), 0.25 ug of either pcDNA3-Bax or pcDNA3-Fas, and 1.5 μg of either pcDNA3myc-SfIAP or pcDNA3myc-CpIAP. Alternatively, cells were co-transfected with 0.35 μg pcDNA3-caspase-9-Flag and 2.1 μg of either SfIAP or CpIAP. […] In some cases, lysates were prepared from transfected cells, normalized for total protein content, and analyzed by SDS-PAGE/immunoblotting as described (Deveraux, Q., et al., (1997) supra; Deveraux, Q. L., et al. (1998) supra; Roy, N. et al. (1997) supra; Takahashi, R., et al., (1998), supra.).
(§2) Baculoviral IAPs have been reported to protect mammalian cells from some apoptotic stimuli (Hawkins, C. J. et al., (1996) Proc. Natl. Acad. Sci. USA 93, 13786-13790; Hawkins, C. et al., (1998) Cell Death and Differentiation 5, 569-576; Uren, A. G. et al., (1996) Proc. Natl. Acad. Sci. USA 93, 4974-4978). Tests were performed to determine whether SfIAP is also capable of functioning as an apoptosis suppressor in a mammalian cell context. […]
(§3) Plasmids encoding various IAPs were co-transfected with Bax or Fas into 293 cells and % apoptosis was determined 24-36 hours later.

[3] = target: T2, caspase-3 (Homo sapiens, UniProt P42574); assay: Inhibition of recombinant purified caspase-3; assay type: biochemical, mammalian; conditions: in vitro
T2 construct: His6 (C); made in house
T2 sequence (P42574 29-175 limits assumed): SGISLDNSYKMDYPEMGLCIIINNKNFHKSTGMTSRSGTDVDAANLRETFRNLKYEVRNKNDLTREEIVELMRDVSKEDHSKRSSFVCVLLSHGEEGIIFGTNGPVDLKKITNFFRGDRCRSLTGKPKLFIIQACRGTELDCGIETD
T2 sequence (P42574 176-277 limits assumed): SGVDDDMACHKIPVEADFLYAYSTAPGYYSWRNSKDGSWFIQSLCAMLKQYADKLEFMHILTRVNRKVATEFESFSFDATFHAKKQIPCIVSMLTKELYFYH
Method: pGEX4T-1-SfIAP and pGEX4T-1 -CpIAP plasmids were introduced into E. coli strain BL21 (DE3) containing the plasmid pT-Trx. GST fusion proteins were obtained by induction with 0.05 mM IPTG at 25° C. for 8 hours, then purified using glutathione-Sepharose, essentially as described (Deveraux, Q., Welsh, K. & Reed, J. Methods of Enzymology in press). Caspases-3, and -7, containing C-terminal His6-tags, and caspase-8 containing an N-terminal His6-tag were purified as described previously (Stennicke, H. R. & Salvesen, G. S. (I1997) J. Biol. Chem. 272, 25719-25723; Stennicke, H., et al., (1998) J. Biol. Chem. 273, 27084-27090; Stennicke, H., et al., (1999) J. Biol. Chem. 274, 8359-8362). Caspase-9 lacking the CARD domain (ΔCARD-caspase-9) was constructed by truncating the cDNA and introducing a start codon substituting Val139. […] Concentrations of purified enzymes were determined from absorbance at 280 nm based on the molar absorption coefficients: caspase-3 (A280=26,000M−1 cm−1), caspase-7 (A280=24,500 M−1 cm−1), caspase-9 (A280=30,010M−1 cm−1).
Caspase activity was assayed by release of 7-amino-4-trifluoromethyl-coumarin (AFC) from Ac-DEVD or Ac-LEHD-containing synthetic peptides (Calbiochem) using continuous-reading instuments as described (Quan, L. T. et al., (1995) J. Biol. Chem. 270:10377-10379).

[4] = tested on: Fas-induced apoptosis in HEK293 cells; assay: Fas-induced apoptosis in HEK293 cells (co-transfection, DAPI nuclear morphology); assay type: cell-based, human; conditions: IAP plasmid co-transfected with Fas into HEK293 cells; % apoptosis 24-36 hours later
Method: as §1, §2, §3

B1: CpIAP: baculoviral (CpGV) inhibitor of apoptosis protein; complete ORF expressed myc-tagged or as GST-fusion (protein)
chain: MSDLRLEEVRLNTFEKWPVSFLSPETMAKNGFYYLGRSDEVRCAFCKVEIMRWKEGEDPAADHKKWAPQCPFVKGIDVCGSIVTTNNIQNTTTHDTIIGPAHPKYAHEAARVKSFHNWPRCMKQRPEQMADAGFFYTGYGDNTKCFYCDGGLKDWEPEDVPWEQHVRWFDRCAYVQLVKGRDYVQKVITEACVLPGENTTVSTAAPVSEPIPETKIEKEPQVEDSKLCKICYVEECIVCFVPCGHVVACAKCALSVDKCPMCRKIVTSVLKVYFS
modifications: left off: a dimerising Fc or GST
notes: complete ORF expressed myc-tagged or as GST-fusion
[1]
  binding to pro-caspase-9 (autoradiography): associated with pro-caspase-9
[2]
  suppression of Bax-induced apoptosis: inhibited Bax-induced apoptosis
[3]
  inhibition of caspase-3: nor inhibited
[4]
  suppression of Fas-induced apoptosis: ineffective at suppressing Fas-induced apoptosis

B2: SfIAP: cellular IAP cloned from Spodoptera frugiperda, protein of 377 amino acids (SEQ ID NO:3); GST-fusion when recombinant (protein, listed as Spodoptera frugiperda)
chain: MWSCSLPCWNTKKSGLQMDITKVASNGSSSTLTLFKSGSLEAKIRPLAPLMLPTPSYDSNAGSPSLSPSTPCSSSSFSIDKTDNHDTFGFSADTVDMRKEDERMKTFEKWPVSFLSGEQLARNGFYYLGRRDEARCAFCKVEIMRWVEGDDPAKDHQRWAPQCPFVRKLNGTAAADTGSSGQDECGARAAPSGTSPPRMAGPVHPRYASEAARLRSFKDWPRCMRQKPEELAEAGFFYTGQGDKTKCFYCDGGLKDWENHDVPWEQHARWFDRCAYVQLVKGREYVQKVISEACEVSASEAERDVAPARTAEPSPPAEAPENSVDDSKLCKICYAEERNVCFVPCGHVVACAKCALAADKCPMCRRTFQNAVRLYFS
modifications: GST fusion when recombinant; fall armyworm inhibitor of apoptosis protein (SfIAP)
[1]
  binding to pro-caspase-9 (autoradiography): associated with pro-caspase-9
[2]
  suppression of Bax-induced apoptosis: inhibited Bax-induced apoptosis
[3]
  inhibition of caspase-3: nor inhibited
[4]
  suppression of Fas-induced apoptosis: ineffective at suppressing Fas-induced apoptosis
